Results published in patent US20030118612A1 (MAXYGEN, published 2003).
Positions count from the first letter of the chain named. Numbers in names are those of the source.

T1: human G-CSF receptor (human, UniProt Q99062 25-836)
T1 sequence (looked up): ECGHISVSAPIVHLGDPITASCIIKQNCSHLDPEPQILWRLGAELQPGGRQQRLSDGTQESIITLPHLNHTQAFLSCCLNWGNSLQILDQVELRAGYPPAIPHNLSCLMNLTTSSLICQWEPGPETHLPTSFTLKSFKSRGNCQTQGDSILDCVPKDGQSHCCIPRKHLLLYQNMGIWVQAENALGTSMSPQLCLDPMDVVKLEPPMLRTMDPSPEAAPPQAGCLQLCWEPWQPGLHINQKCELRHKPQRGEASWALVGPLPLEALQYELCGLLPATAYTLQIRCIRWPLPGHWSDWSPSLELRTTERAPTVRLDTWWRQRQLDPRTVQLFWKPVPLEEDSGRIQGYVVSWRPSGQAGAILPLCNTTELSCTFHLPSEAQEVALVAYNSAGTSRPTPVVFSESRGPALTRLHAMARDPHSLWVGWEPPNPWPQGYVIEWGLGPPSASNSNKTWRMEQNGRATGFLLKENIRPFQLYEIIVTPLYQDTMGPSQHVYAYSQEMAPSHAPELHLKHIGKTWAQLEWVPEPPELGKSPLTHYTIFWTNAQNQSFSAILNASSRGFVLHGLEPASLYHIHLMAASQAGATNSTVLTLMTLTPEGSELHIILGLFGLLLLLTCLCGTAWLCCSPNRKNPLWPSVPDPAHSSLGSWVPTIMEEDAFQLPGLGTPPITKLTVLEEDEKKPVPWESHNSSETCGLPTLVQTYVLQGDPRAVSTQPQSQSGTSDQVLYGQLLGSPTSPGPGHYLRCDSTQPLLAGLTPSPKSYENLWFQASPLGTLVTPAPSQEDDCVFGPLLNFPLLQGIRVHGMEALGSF

B1: G-CSF variant K16/23/40R, non-conjugated (ligand)
chain: TPLGPASSLPQSFLLRCLEQVRRIQGDGAALQEKLCATYRLCHPEELVLLGHSLGIPWAPLSSCPSQALQLAGCLSQLHSGLFLYQGLLQALEGISPELGPTLDTLQLDVADFATTIWQQMEELGMAPALQPTQGAMPAFASAFQRRAGGVLVASHLQSFLEVSYRVLRHLAQP
B2: G-CSF variant K16/23/40R conjugated to SPA-PEG 5000 (ligand)
chain: B1 chain
modifications: SPA-PEG 5000 conjugated to the available PEGylation sites
B3: G-CSF variant K16/34/40R, non-conjugated (ligand)
chain: B1 chain with R23K, K34R
B4: G-CSF variant K16/34/40R conjugated to SPA-PEG 5000 (ligand)
chain: B1 chain with R23K, K34R
modifications: SPA-PEG 5000 conjugated to the available PEGylation sites
B5: G-CSF variant K16/23/34/40R, non-conjugated (ligand)
chain: B1 chain with K34R
B6: G-CSF variant K16/23/34/40R conjugated to SPA-PEG 5000 (ligand)
chain: B1 chain with K34R
modifications: SPA-PEG 5000 conjugated to the available PEGylation sites
B7: G-CSF variant K16/34/40R L3K, non-conjugated (ligand)
chain: B1 chain with L3K, R23K, K34R
B8: G-CSF without N-terminal Histidine tag conjugated to SPA-PEG 5000 (ligand)
chain: B1 chain with R16K, R23K, R40K
modifications: SPA-PEG 5000 conjugated to the available PEGylation sites
B9: G-CSF variant K16/34/40R L3K conjugated to SPA-PEG 5000 (ligand)
chain: B1 chain with L3K, R23K, K34R
modifications: SPA-PEG 5000 conjugated to the available PEGylation sites
B10: G-CSF variant K16/34/40R E46K, non-conjugated (ligand)
chain: B1 chain with R23K, K34R, E46K
B11: G-CSF variant K16/34/40R E46K conjugated to SPA-PEG 5000 (ligand)
chain: B1 chain with R23K, K34R, E46K
modifications: SPA-PEG 5000 conjugated to the available PEGylation sites
B12: G-CSF variant K16/34/40R S53K, non-conjugated (ligand)
chain: B1 chain with R23K, K34R, S53K
B13: G-CSF variant K16/34/40R S53K conjugated to SPA-PEG 5000 (ligand)
chain: B1 chain with R23K, K34R, S53K
modifications: SPA-PEG 5000 conjugated to the available PEGylation sites
B14: G-CSF variant K16/34/40R S62K, non-conjugated (ligand)
chain: B1 chain with R23K, K34R, S62K
B15: G-CSF variant K16/34/40R S62K conjugated to SPA-PEG 5000 (ligand)
chain: B1 chain with R23K, K34R, S62K
modifications: SPA-PEG 5000 conjugated to the available PEGylation sites
B16: G-CSF variant K16/34/40R S66K, non-conjugated (ligand)
chain: B1 chain with R23K, K34R, S66K
B17: G-CSF variant K16/34/40R S66K conjugated to SPA-PEG 5000 (ligand)
chain: B1 chain with R23K, K34R, S66K
modifications: SPA-PEG 5000 conjugated to the available PEGylation sites
B18: G-CSF variant K16/34/40R Q67K, non-conjugated (ligand)
chain: B1 chain with R23K, K34R, Q67K
B19: G-CSF variant 16R, non-conjugated (ligand)
chain: B1 chain with R23K, R40K
B20: G-CSF variant K16/34/40R Q67K conjugated to SPA-PEG 5000 (ligand)
chain: B1 chain with R23K, K34R, Q67K
modifications: SPA-PEG 5000 conjugated to the available PEGylation sites
B21: G-CSF variant K16/34/40R Q70K, non-conjugated (ligand)
chain: B1 chain with R23K, K34R, Q70K
B22: G-CSF variant K16/34/40R Q70K conjugated to SPA-PEG 5000 (ligand)
chain: B1 chain with R23K, K34R, Q70K
modifications: SPA-PEG 5000 conjugated to the available PEGylation sites
B23: G-CSF variant K16/34/40R S76, non-conjugated (ligand)
chain: B1 chain with R23K, K34R, S76K
B24: G-CSF variant K16/34/40R S76 conjugated to SPA-PEG 5000 (ligand)
chain: B1 chain with R23K, K34R, S76K
modifications: SPA-PEG 5000 conjugated to the available PEGylation sites
B25: G-CSF variant K16/34/40R Q77, non-conjugated (ligand)
chain: B1 chain with R23K, K34R, Q77K
B26: G-CSF variant K16/34/40R Q77 conjugated to SPA-PEG 5000 (ligand)
chain: B1 chain with R23K, K34R, Q77K
modifications: SPA-PEG 5000 conjugated to the available PEGylation sites
B27: G-CSF variant K16/34/40R S80K, non-conjugated (ligand)
chain: B1 chain with R23K, K34R, S80K
B28: G-CSF variant K16/34/40R S80K conjugated to SPA-PEG 5000 (ligand)
chain: B1 chain with R23K, K34R, S80K
modifications: SPA-PEG 5000 conjugated to the available PEGylation sites
B29: G-CSF variant K16/34/40R Q90K, non-conjugated (ligand)
chain: B1 chain with R23K, K34R, Q90K
B30: G-CSF variant 16R conjugated to SPA-PEG 5000 (ligand)
chain: B1 chain with R23K, R40K
modifications: SPA-PEG 5000 conjugated to the available PEGylation sites
B31: G-CSF variant K16/34/40R Q90K conjugated to SPA-PEG 5000 (ligand)
chain: B1 chain with R23K, K34R, Q90K
modifications: SPA-PEG 5000 conjugated to the available PEGylation sites
B32: G-CSF variant K16/34/40R D104K, non-conjugated (ligand)
chain: B1 chain with R23K, K34R, D104K
B33: G-CSF variant K16/34/40R D104K conjugated to SPA-PEG 5000 (ligand)
chain: B1 chain with R23K, K34R, D104K
modifications: SPA-PEG 5000 conjugated to the available PEGylation sites
B34: G-CSF variant K16/34/40R T105K, non-conjugated (ligand)
chain: B1 chain with R23K, K34R, T105K
B35: G-CSF variant K16/34/40R T105K conjugated to SPA-PEG 5000 (ligand)
chain: B1 chain with R23K, K34R, T105K
modifications: SPA-PEG 5000 conjugated to the available PEGylation sites
B36: G-CSF variant K16/34/40R Q120K, non-conjugated (ligand)
chain: B1 chain with R23K, K34R, Q120K
B37: G-CSF variant K16/34/40R Q120K conjugated to SPA-PEG 5000 (ligand)
chain: B1 chain with R23K, K34R, Q120K
modifications: SPA-PEG 5000 conjugated to the available PEGylation sites
B38: G-CSF variant K16/34/40R T133K, non-conjugated (ligand)
chain: B1 chain with R23K, K34R, T133K
B39: G-CSF variant K16/34/40R T133K conjugated to SPA-PEG 5000 (ligand)
chain: B1 chain with R23K, K34R, T133K
modifications: SPA-PEG 5000 conjugated to the available PEGylation sites
B40: G-CSF variant K16/34/40R Q134K, non-conjugated (ligand)
chain: B1 chain with R23K, K34R, Q134K
B41: G-CSF variant 16Q, non-conjugated (ligand)
chain: B1 chain with R16Q, R23K, R40K
B42: G-CSF variant K16/34/40R Q134K conjugated to SPA-PEG 5000 (ligand)
chain: B1 chain with R23K, K34R, Q134K
modifications: SPA-PEG 5000 conjugated to the available PEGylation sites
B43: G-CSF variant K16/34/40R S142K, non-conjugated (ligand)
chain: B1 chain with R23K, K34R, S142K
B44: G-CSF variant K16/34/40R S142K conjugated to SPA-PEG 5000 (ligand)
chain: B1 chain with R23K, K34R, S142K
modifications: SPA-PEG 5000 conjugated to the available PEGylation sites
B45: G-CSF variant K16/34/40R R147K, non-conjugated (ligand)
chain: B1 chain with R23K, K34R, R147K
B46: G-CSF variant K16/34/40R R147K conjugated to SPA-PEG 5000 (ligand)
chain: B1 chain with R23K, K34R, R147K
modifications: SPA-PEG 5000 conjugated to the available PEGylation sites
B47: G-CSF variant K16/34/40R S155K, non-conjugated (ligand)
chain: B1 chain with R23K, K34R, S155K
B48: G-CSF variant K16/34/40R S155K conjugated to SPA-PEG 5000 (ligand)
chain: B1 chain with R23K, K34R, S155K
modifications: SPA-PEG 5000 conjugated to the available PEGylation sites
B49: G-CSF variant K16/34/40R Q158, non-conjugated (ligand)
chain: B1 chain with R23K, K34R, Q158K
B50: G-CSF variant K16/34/40R Q158 conjugated to SPA-PEG 5000 (ligand)
chain: B1 chain with R23K, K34R, Q158K
modifications: SPA-PEG 5000 conjugated to the available PEGylation sites

Target: T1, human G-CSF receptor
Experiment: cell-based or functional assay

Binder	EC50 (% of hG-CSF) non-conjugated	EC50 (% of hG-CSF) conjugated to SPA-PEG 5000
B1	50 % of hG-CSF	–
B2	–	5 % of hG-CSF
B3	35 % of hG-CSF	–
B4	–	30 % of hG-CSF
B5	20 % of hG-CSF	–
B6	–	15 % of hG-CSF
B7	50 % of hG-CSF	–
B8	–	0.1 % of hG-CSF
B9	–	25 % of hG-CSF
B10	10 % of hG-CSF	–
B11	–	1 % of hG-CSF
B12	5 % of hG-CSF	–
B13	–	0.5 % of hG-CSF
B14	10 % of hG-CSF	–
B15	–	0.5 % of hG-CSF
B16	20 % of hG-CSF	–
B17	–	2 % of hG-CSF
B18	10 % of hG-CSF	–
B19	100 % of hG-CSF	–
B20	–	0.2 % of hG-CSF
B21	30 % of hG-CSF	–
B22	–	20 % of hG-CSF
B23	50 % of hG-CSF	–
B24	–	20 % of hG-CSF
B25	1 % of hG-CSF	–

Binder	EC50 (% of hG-CSF) non-conjugated	EC50 (% of hG-CSF) conjugated to SPA-PEG 5000
B26	–	0 % of hG-CSF
B27	10 % of hG-CSF	–
B28	–	0.2 % of hG-CSF
B29	30 % of hG-CSF	–
B30	–	1 % of hG-CSF
B31	–	20 % of hG-CSF
B32	10 % of hG-CSF	–
B33	–	0.9 % of hG-CSF
B34	30 % of hG-CSF	–
B35	–	10 % of hG-CSF
B36	30 % of hG-CSF	–
B37	–	20 % of hG-CSF
B38	30 % of hG-CSF	–
B39	–	10 % of hG-CSF
B40	10 % of hG-CSF	–
B41	80 % of hG-CSF	–
B42	–	0.2 % of hG-CSF
B43	20 % of hG-CSF	–
B44	–	7 % of hG-CSF
B45	20 % of hG-CSF	–
B46	–	1 % of hG-CSF
B47	20 % of hG-CSF	–
B48	–	1 % of hG-CSF
B49	20 % of hG-CSF	–
B50	–	5 % of hG-CSF
